Consider 4 molecules from US11932880B2, “Enzyme and method for assaying pentosidine using same” (priority 2018, dated 2024).

Series [1] in a line: Enzyme activity measurement with pentosidine as substrate (A555 change, U/mL). Particulars: 37° C.; for specific activity, as a reference value (pentosidine oxidase): 1 mg of powder dissolved in 1 mL deionized water; for pentosidine oxidase activity: purchased enzymes at 1 mg/mL, potassium phosphate buffer pH 7.5, 100 mM. In kind it is biochemical. On the procedure: 600 μL of an arbitrary buffer, 400 μL of deionized water solution in which 3.99 U/mL peroxidase, 1.8 mM 4-aminoantipyrine and 2 mM TOOS were dissolved, and 150 μL of deionized water were incubated at an arbitrary temperature for 10 minutes. Then, 50 μL of the enzyme solution having been stored on ice and 400 μL of a solution of 4 mM pentosidine dissolved in a 100 mM potassium phosphate buffer (pH 8.0) having been incubated at an arbitrary temperature for 10 minutes were added thereto, followed by stirring and reacting at an arbitrary temperature for 3 minutes. A change over time of A555 during the reaction was measured using a spectrophotometer (U-3900, manufactured by Hitachi High-Tech Science Corporation). An elapsed time from the start of the measurement of 20 seconds to 60 seconds—A555 change was regarded as an activity value.
Besides, an amount of the enzyme generating 1 μmol of hydrogen peroxide per minute at 37° C. was defined as one unite (U), and the activity was calculated in accordance with the following equation. Activity (U/mL)={(ΔAs−ΔA0)×1.6×df}/(39.2×0.5×0.05) • ΔAs: change of A555 per minute of reaction solution • ΔA0: change of A555 per minute of control experiment • 1.6: volume (mL) of whole reaction solution • df: dilution factor • 39.2: millimolar absorbance coefficient (mM^−1-cm-1) of quinoneimine pigment generated through reaction • 0.5: molar number of quinoneimine pigment generated by 1 mol of hydrogen peroxide • 0.05: volume (mL) of enzyme solution
A 50 mM citric acid-100 mM potassium phosphate buffer (pH 4.0 to 7.5, a final concentration), a potassium phosphate buffer (pH 6.5 to 8.0, a final concentration of 100 mM), and a glycine buffer (pH 8.0 to 11.0, a final concentration of 100 mM) were prepared, and these were used to perform an enzymatic reaction at respective pH at a temperature of 37° C. […] Therefore, it was determined that the optimum pH of PenOX2 is pH 6.5 to 8.0, and that the most suitable optimum pH is pH 7.5.
A potassium phosphate buffer (pH 7.5) having a final concentration of 50 mM was used to perform the activity measurement of PenOX2 at various temperatures. The highest activity was obtained around 50° C., and a temperature range for attaining 80% or more of this highest activity was 37° C. to 50° C. Therefore, it was determined that the range of the optimum temperature of PenOX2 is 37° C. to 50° C.
The above-described activity measurement method was employed to perform activity measurement using a potassium phosphate buffer (final pH in the activity measurement: pH 7.5, final concentration of 50 mM) at 37° C., and an activity value (U/mL) was obtained by using the aforementioned equation.
As described above, both PenOX1 and PenOX2 had the pentosidine oxidase activity. […] Subsequently, the following three enzymes were purchased, and the above-described activity measurement method was employed for confirming their pentosidine oxidase activity using a potassium phosphate buffer (pH 7.5, final concentration of 100 mM) at 37° C. The amino acid sequence homologies with PenOX1 and PenOX2 and the pentosidine oxidase activities of these enzymes were as follows.

The nature of series [2]: Pentosidine quantitative test (DA-67/peroxidase, A658, Bio Majesty JCA-BM1650). In kind it is biochemical. Particulars: 0.2-4.0 μM pentosidine solutions, 37° C., 5 minutes; ΔA658 correlated with final pentosidine concentration (FIG. 4). As for the experimental part:
The following reagents were prepared to measure pentosidine by using Bio Majesty JCA-BM1650 (manufactured by JEOL Ltd.).
0.2 μM, 0.4 μM, 0.6 μM, 1.0 μM, 2.0 μM or 4.0 μM pentosidine solution
25 μL of the sample was added to 50 μL of the first reagent, and the resultant was incubated at 37° C. for 5 minutes. Then, 25 μL of the second reagent was added thereto to allow a pentosidine oxidation reaction owing to PenOX2 and a detection reaction for hydrogen peroxide generated through the reaction to proceed at 37° C. for 5 minutes.
In the detection reaction for hydrogen peroxide, simultaneously with consumption of […], DA-67 is oxidized into methylene blue to present the color, and the absorbance (A658) is increased. As an example, the relationship between the elapsed time after the mixture of the sample (4.0 μM pentosidine solution) and the first reagent and the absorbance (A658) is shown in FIG. 3. It was confirmed that A658 increased immediately after the addition of the second reagent containing PenOX2.
Subsequently, an A658 increment (AA) caused by the oxidation of pentosidine was calculated in accordance with the following equation: ΔA=(absorbance 5 min after addition of second reagent)−(absorbance immediately before addition of second reagent×0.75)

B1: Lysine Oxidase Derived from Trichoderma viride: purchased enzyme manufactured by Merck, SEQ ID NO: 14 (protein)
chain: MDNVDFAESVRTRWARRLIREKVAKELNILTERLGEVPGIPPPREGRFLGGGYSHDNLPSDPLYSSIKPALLKEAPRAEEELPPRKVCIVGAGVSGLYIAMILDDLKIPNLTYDIFESSSRTGGRLYTHHFTDAKHDYYDIGAMRYPDIPSMKRTFNLFKRTGMPLIKYYLDGENTPQLYNNHFFAKGVVDPYMVSVANGGTVPDDVVDSVGEKLQQAFGYYKEKLAEDFDKGFDELMLVDDMTTREYLKRGGPKGEAPKYDFFAIQWMETQNTGTNLFDQAFSESVIDSFDFDNPTKPEWYCIEGGTSLLVDAMKETLVHKVQNNKRVEAISIDLDAPDDGNMSVKIGGKDYSGYSTVFNTTALGCLDRMDLRGLNLHPTQADAIRCLHYDNSTKVALKFSYPWWIKDCGITCGGAASTDLPLRTCVYPSYNLGDTGEAVLLASYTWSQDATRIGSLVKDAPPQPPKEDELVELILQNLARLHAEHMTYEKIKEAYTGVYHAYCWANDPNVGGAFALFGPGQFSNLYPYLMRPAAGGKFHIVGEASSVHHAWIIGSLESAYTAVYQFLYKYKMWDYLRLLLERWQYGLQELETGKHGTAHLQFILGSLPKEYQVKIV
modifications: Trichoderma viride
Regarding B1, the “specific activity, as a reference value (pentosidine oxidase)” value in series [1] (pH 7.5, 100 mM) was determined as 0.063 U/mg. In series [1], this molecule came in with a pentosidine oxidase activity of 0.063 U/mL.

B2: Amino Acid Oxidase Type VI Derived from Crotalus adamanteus: purchased enzyme manufactured by Merck, SEQ ID NO: 12 (protein, listed as Crotalus adamanteus)
chain: AHDRNPLEECFRETDYEEFLEIAKNGLTATSNPKRVVIVGAGMAGLSAAYVLAGAGHQVTVLEASERVGGRVRTYRKKDWYANLGPMRLPTKHRIVREYIKKFDLKLNEFSQENENAWYFIKNIRKRVREVKNNPGLLEYPVKPSEEGKSAAQLYVESLRKVVEELRSTNCKYILDKYDTYSTKEYLLKEGNLSPGAVDMIGDLLNEDSGYYVSFIESLKHDDIFGYEKRFDEIVGGMDQLPTSMYEAIKEKVQVHFNARVIEIQQNDREATVTYQTSANEMSSVTADYVIVCTTSRAARRIKFEPPLPPKKAHALRSVHYRSGTKIFLTCTKKFWEDDGIHGGKSTTDLPSRFIYYPNHNFTSGVGVIIAYGIGDDANFFQALDFKDCADIVINDLSLIHELPKEDIQTFCHPSMIQRWSLDKYAMGGITTFTPYQFQHFSEALTAPFKRIYFAGEYTAQFHGWIDSTIKSGLTAARDVNRASENPSGIHLSNDNEF
As to B2, the “specific activity (pentosidine oxidase)” value in series [1] (enzyme concentration 1 mg/mL (biuret method), pH 7.5, 100 mM) is reported as 0.555 U/mg. This molecule also had a pentosidine oxidase activity in series [1] of 0.555 U/mL.

B3: Amino Acid Oxidase Type I Derived from Crotalus atrox: purchased enzyme manufactured by Merck, SEQ ID NO: 13 (protein)
chain: AHDRNPLEECFRETDYEEFLEIAKNGLTATSNPKRVVIVGAGMAGLSAAYVLAGAGHQVTVLEASERVGGRVRTYRKKDWYANLGPMRLPTKHRIVREYIKKFDLKLNEFSQENENAWYFIKNIRKRVREVKNNPGLLEYPVKPSEEGKSAAQLYVESLRKVVEELRSTNCKYILDKYDTYSTKEYLLKEGNLSPGAVDMIGDLLNEDSGYYVSFIESLKHDDIFGYEKRFDEIVGGMDQLPTSMYEAIKEKVQVHFNARVIEIQQNDREATVTYQTSANEMSSVTADYVIVCTTSRAARRIKFEPPLPPKKAHALRSVHYRSGTKIFLTCTKKFWEDDGIHGGKSTTDLPSRFIYYPNHNFTSGVGVIIAYGIGDDANFFQALDFKDCADIVINDLSLIHELPKEDIQTFCHPSMIQRWSLDKYAMGGITTFTPYQFQHFSEALTAPFKRIYFAGEYTAQFHGWIDSTIKSGLTAARDVNRASENPSGIHLSNDNEF
modifications: Crotalus atrox
Consider B3, for which the “specific activity, as a reference value (pentosidine oxidase)” value in series [1] (pH 7.5, 100 mM) is 0.022 U/mg. The molecule also yielded a pentosidine oxidase activity in series [1] of 0.022 U/mL.

B4: PenOX1: protein having the amino acid sequence of SEQ ID NO: 2, pentosidine oxidase from Sarocladium sp., gene g4462 (protein, listed as Sarocladium sp.)
chain: MKSPSLAVAGLLLGSSSLSHATQLRIETRKSLNSRIANVHIDVDAPVAHQVVFTYGPCDSESQENAHHVIAQSQKLEGRKPHRLIWTMPKDLHPDDCISAWGESGDLLGRSVPQKVAHKEMRRRKRDDSDYSIPMNSSSGIDVYGPWFDGVALLEKSDNHNVDVEAAKAKEIAIVGAGMAGLTTYFILSEAGLSNLTILEASGRLGGRVRTEYLSGGPRDHSYAEMGPMRIPYQARFGDKAYNISDQAIFFRLVEKVNERNKKLGNTKDLINLIPFIQSSPNGLAYYQGNKLENGLPPTQADVAADPALGNESPEIPESAQELAAQLQRALPNAEFLELMATNFWQAHAEFLENQGPAGLPGDQWSEFAFLVNYLNATVFDANAVTGGYDWHSSLDRSSLVGMNLLPNAFHPLVDDITKFNAKVEKVQLDEKTSRLKLHWRANYTDPELESQSFDYAILSPTMPAVQKLRLPGLPFAMRNAVDSMPYASACKVALEYRTRFWEKFDNPIYGSCSTSTDIPGIGSVCYPSSNINGSGPASLLASYEIGRPYGAEWAGIPEEQHVQYVIDAMIDIHGEVARREFTGKCKRKCWALDEFSNGGWASPTVGNHETYLPSFFETHSHMIFVGEHTSYTHAWIASAIESAVRGSVQLLLELGLIDEAKDVVNTWMARWISVVSDLSKAVVSGASA
For the molecule B4, in series [2], the pentosidine oxidation activity entry is reported as “similarly exhibited pentosidine oxidation activity”.
